# Assay results reported in US20230158141A1 (YAFEI SHANGHAI BIOLOG MEDICINE SCIENCE AND TECHNOLOGY, published 2023).
# T1: IL-10R2-Fc/His (UniProt Q08334 20-220, limits assumed)
# T1 sequence (looked up): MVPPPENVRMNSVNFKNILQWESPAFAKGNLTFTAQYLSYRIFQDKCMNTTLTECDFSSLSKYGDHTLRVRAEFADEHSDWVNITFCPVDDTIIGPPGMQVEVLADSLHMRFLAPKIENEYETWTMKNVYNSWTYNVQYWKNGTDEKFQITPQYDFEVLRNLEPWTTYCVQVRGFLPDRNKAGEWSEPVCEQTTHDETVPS
# T2: IL-10R1-Fc (UniProt Q13651 22-235, limits assumed)
# T2 sequence (looked up): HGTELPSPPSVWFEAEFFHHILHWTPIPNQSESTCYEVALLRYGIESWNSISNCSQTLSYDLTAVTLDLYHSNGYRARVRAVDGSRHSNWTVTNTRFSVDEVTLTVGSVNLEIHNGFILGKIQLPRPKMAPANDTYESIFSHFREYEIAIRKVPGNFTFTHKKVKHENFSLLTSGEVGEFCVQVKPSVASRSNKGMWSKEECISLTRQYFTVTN
# Molecular target: T1, IL-10R2-Fc/His
# Test: ELISA, IL-10R2-Fc/His coated
Binder,Binding recovery (>60%),Decreased fold of binding to ligand after Conjugating with S48
"IL-10 Phe15Cys-R4-8 (ligand, human, UniProt P22301 19-178, looked up, R4-8 on Cys 15, mature) SPGQGTQSENSCTHCPGNLPNMLRDLRDAFSRVKTFFQMKDQLDNLLLKESLLEDFKGYLGCQALSEMIQFYLEEVMPQAENQDPDIKAHVNSLGENLKTLRLRLRRCHRFLPCENKSKAVEQVKNAFNKLQEKGIYKAMSEFDIFINYIEAYMTMKIRN",90%,–
"IL-10 Ala89Cys-R4-1 (ligand, human, UniProt P22301 19-178, looked up, R4-1 on Cys 89, mature) SPGQGTQSENSCTHFPGNLPNMLRDLRDAFSRVKTFFQMKDQLDNLLLKESLLEDFKGYLGCQALSEMIQFYLEEVMPQAENQDPDIKCHVNSLGENLKTLRLRLRRCHRFLPCENKSKAVEQVKNAFNKLQEKGIYKAMSEFDIFINYIEAYMTMKIRN",78.7%,–
"IL-10 Glu96Cys-R4-12 (ligand, human, UniProt P22301 19-178, looked up, R4-12 on Cys 96, mature) SPGQGTQSENSCTHFPGNLPNMLRDLRDAFSRVKTFFQMKDQLDNLLLKESLLEDFKGYLGCQALSEMIQFYLEEVMPQAENQDPDIKAHVNSLGCNLKTLRLRLRRCHRFLPCENKSKAVEQVKNAFNKLQEKGIYKAMSEFDIFINYIEAYMTMKIRN",98%,–
"IL-10 Glu81Cys-R4-12 (ligand, human, UniProt P22301 19-178, looked up, R4-12 on Cys 81, mature) SPGQGTQSENSCTHFPGNLPNMLRDLRDAFSRVKTFFQMKDQLDNLLLKESLLEDFKGYLGCQALSEMIQFYLEEVMPQACNQDPDIKAHVNSLGENLKTLRLRLRRCHRFLPCENKSKAVEQVKNAFNKLQEKGIYKAMSEFDIFINYIEAYMTMKIRN",93.6%,–
"IL-10 Arg102Cys-S48 (ligand, human, UniProt P22301 19-178, looked up, S48 on Cys 102, mature) SPGQGTQSENSCTHFPGNLPNMLRDLRDAFSRVKTFFQMKDQLDNLLLKESLLEDFKGYLGCQALSEMIQFYLEEVMPQAENQDPDIKAHVNSLGENLKTLCLRLRRCHRFLPCENKSKAVEQVKNAFNKLQEKGIYKAMSEFDIFINYIEAYMTMKIRN",–,3 fold
"IL-10 Asp86Cys-S48 (ligand, human, UniProt P22301 19-178, looked up, S48 on Cys 86, mature) SPGQGTQSENSCTHFPGNLPNMLRDLRDAFSRVKTFFQMKDQLDNLLLKESLLEDFKGYLGCQALSEMIQFYLEEVMPQAENQDPCIKAHVNSLGENLKTLRLRLRRCHRFLPCENKSKAVEQVKNAFNKLQEKGIYKAMSEFDIFINYIEAYMTMKIRN",–,3 fold
"IL-10 Asn92Cys-R4-18 (ligand, human, UniProt P22301 19-178, looked up, R4-18 on Cys 92, mature) SPGQGTQSENSCTHFPGNLPNMLRDLRDAFSRVKTFFQMKDQLDNLLLKESLLEDFKGYLGCQALSEMIQFYLEEVMPQAENQDPDIKAHVCSLGENLKTLRLRLRRCHRFLPCENKSKAVEQVKNAFNKLQEKGIYKAMSEFDIFINYIEAYMTMKIRN",86.4%,–
"IL-10 Glu122Cys-R4-12 (ligand, human, UniProt P22301 19-178, looked up, R4-12 on Cys 122, mature) SPGQGTQSENSCTHFPGNLPNMLRDLRDAFSRVKTFFQMKDQLDNLLLKESLLEDFKGYLGCQALSEMIQFYLEEVMPQAENQDPDIKAHVNSLGENLKTLRLRLRRCHRFLPCENKSKAVCQVKNAFNKLQEKGIYKAMSEFDIFINYIEAYMTMKIRN",99.8%,–
"IL-10 Glu122Cys-S48 (ligand, human, UniProt P22301 19-178, looked up, S48 on Cys 122, mature) SPGQGTQSENSCTHFPGNLPNMLRDLRDAFSRVKTFFQMKDQLDNLLLKESLLEDFKGYLGCQALSEMIQFYLEEVMPQAENQDPDIKAHVNSLGENLKTLRLRLRRCHRFLPCENKSKAVCQVKNAFNKLQEKGIYKAMSEFDIFINYIEAYMTMKIRN",–,3 fold
"IL-10 Glu96Cys-S48 (ligand, human, UniProt P22301 19-178, looked up, S48 on Cys 96, mature) SPGQGTQSENSCTHFPGNLPNMLRDLRDAFSRVKTFFQMKDQLDNLLLKESLLEDFKGYLGCQALSEMIQFYLEEVMPQAENQDPDIKAHVNSLGCNLKTLRLRLRRCHRFLPCENKSKAVEQVKNAFNKLQEKGIYKAMSEFDIFINYIEAYMTMKIRN",–,3 fold
"IL-10 Gln123Cys-R4-19 (ligand, human, UniProt P22301 19-178, looked up, R4-19 on Cys 123, mature) SPGQGTQSENSCTHFPGNLPNMLRDLRDAFSRVKTFFQMKDQLDNLLLKESLLEDFKGYLGCQALSEMIQFYLEEVMPQAENQDPDIKAHVNSLGENLKTLRLRLRRCHRFLPCENKSKAVECVKNAFNKLQEKGIYKAMSEFDIFINYIEAYMTMKIRN",96.5%,–
"IL-10 Asn92Cys-S48 (ligand, human, UniProt P22301 19-178, looked up, S48 on Cys 92, mature) SPGQGTQSENSCTHFPGNLPNMLRDLRDAFSRVKTFFQMKDQLDNLLLKESLLEDFKGYLGCQALSEMIQFYLEEVMPQAENQDPDIKAHVCSLGENLKTLRLRLRRCHRFLPCENKSKAVEQVKNAFNKLQEKGIYKAMSEFDIFINYIEAYMTMKIRN",–,3 fold
"IL-10 Asn126Cys-R4-18 (ligand, human, UniProt P22301 19-178, looked up, R4-18 on Cys 126, mature) SPGQGTQSENSCTHFPGNLPNMLRDLRDAFSRVKTFFQMKDQLDNLLLKESLLEDFKGYLGCQALSEMIQFYLEEVMPQAENQDPDIKAHVNSLGENLKTLRLRLRRCHRFLPCENKSKAVEQVKCAFNKLQEKGIYKAMSEFDIFINYIEAYMTMKIRN",99%,–

# Second part, the binder after the results:
Binding recovery (>60%),Decreased fold of binding to ligand after Conjugating with S48,Binder
–,3 fold,"IL-10 Ala29Cys-S48 (ligand, human, UniProt P22301 19-178, looked up, S48 on Cys 29, mature) SPGQGTQSENSCTHFPGNLPNMLRDLRDCFSRVKTFFQMKDQLDNLLLKESLLEDFKGYLGCQALSEMIQFYLEEVMPQAENQDPDIKAHVNSLGENLKTLRLRLRRCHRFLPCENKSKAVEQVKNAFNKLQEKGIYKAMSEFDIFINYIEAYMTMKIRN"
99%,–,"IL-10 Arg102Cys-R4-20 (ligand, human, UniProt P22301 19-178, looked up, R4-20 on Cys 102, mature) SPGQGTQSENSCTHFPGNLPNMLRDLRDAFSRVKTFFQMKDQLDNLLLKESLLEDFKGYLGCQALSEMIQFYLEEVMPQAENQDPDIKAHVNSLGENLKTLCLRLRRCHRFLPCENKSKAVEQVKNAFNKLQEKGIYKAMSEFDIFINYIEAYMTMKIRN"
–,3 fold,"IL-10 Gln123Cys-S48 (ligand, human, UniProt P22301 19-178, looked up, S48 on Cys 123, mature) SPGQGTQSENSCTHFPGNLPNMLRDLRDAFSRVKTFFQMKDQLDNLLLKESLLEDFKGYLGCQALSEMIQFYLEEVMPQAENQDPDIKAHVNSLGENLKTLRLRLRRCHRFLPCENKSKAVECVKNAFNKLQEKGIYKAMSEFDIFINYIEAYMTMKIRN"
–,5 fold,"IL-10 Ala89Cys-S48 (ligand, human, UniProt P22301 19-178, looked up, S48 on Cys 89, mature) SPGQGTQSENSCTHFPGNLPNMLRDLRDAFSRVKTFFQMKDQLDNLLLKESLLEDFKGYLGCQALSEMIQFYLEEVMPQAENQDPDIKCHVNSLGENLKTLRLRLRRCHRFLPCENKSKAVEQVKNAFNKLQEKGIYKAMSEFDIFINYIEAYMTMKIRN"
–,3 fold,"IL-10 Glu81Cys-S48 (ligand, human, UniProt P22301 19-178, looked up, S48 on Cys 81, mature) SPGQGTQSENSCTHFPGNLPNMLRDLRDAFSRVKTFFQMKDQLDNLLLKESLLEDFKGYLGCQALSEMIQFYLEEVMPQACNQDPDIKAHVNSLGENLKTLRLRLRRCHRFLPCENKSKAVEQVKNAFNKLQEKGIYKAMSEFDIFINYIEAYMTMKIRN"
81%,–,"IL-10 Asp86Cys-R4-11 (ligand, human, UniProt P22301 19-178, looked up, R4-11 on Cys 86, mature) SPGQGTQSENSCTHFPGNLPNMLRDLRDAFSRVKTFFQMKDQLDNLLLKESLLEDFKGYLGCQALSEMIQFYLEEVMPQAENQDPCIKAHVNSLGENLKTLRLRLRRCHRFLPCENKSKAVEQVKNAFNKLQEKGIYKAMSEFDIFINYIEAYMTMKIRN"
78%,–,"IL-10 Ala29Cys-R4-5 (ligand, human, UniProt P22301 19-178, looked up, R4-5 on Cys 29, mature) SPGQGTQSENSCTHFPGNLPNMLRDLRDCFSRVKTFFQMKDQLDNLLLKESLLEDFKGYLGCQALSEMIQFYLEEVMPQAENQDPDIKAHVNSLGENLKTLRLRLRRCHRFLPCENKSKAVEQVKNAFNKLQEKGIYKAMSEFDIFINYIEAYMTMKIRN"
91.5%,–,"IL-10 Asp25Cys-R4-11 (ligand, human, UniProt P22301 19-178, looked up, R4-11 on Cys 25, mature) SPGQGTQSENSCTHFPGNLPNMLRCLRDAFSRVKTFFQMKDQLDNLLLKESLLEDFKGYLGCQALSEMIQFYLEEVMPQAENQDPDIKAHVNSLGENLKTLRLRLRRCHRFLPCENKSKAVEQVKNAFNKLQEKGIYKAMSEFDIFINYIEAYMTMKIRN"
–,3 fold,"IL-10 Arg106Cys-S48 (ligand, human, UniProt P22301 19-178, looked up, S48 on Cys 106, mature) SPGQGTQSENSCTHFPGNLPNMLRDLRDAFSRVKTFFQMKDQLDNLLLKESLLEDFKGYLGCQALSEMIQFYLEEVMPQAENQDPDIKAHVNSLGENLKTLRLRLCRCHRFLPCENKSKAVEQVKNAFNKLQEKGIYKAMSEFDIFINYIEAYMTMKIRN"
99.6%,–,"IL-10 Arg106Cys-R4-7 (ligand, human, UniProt P22301 19-178, looked up, R4-7 on Cys 106, mature) SPGQGTQSENSCTHFPGNLPNMLRDLRDAFSRVKTFFQMKDQLDNLLLKESLLEDFKGYLGCQALSEMIQFYLEEVMPQAENQDPDIKAHVNSLGENLKTLRLRLCRCHRFLPCENKSKAVEQVKNAFNKLQEKGIYKAMSEFDIFINYIEAYMTMKIRN"
–,3 fold,"IL-10 Asn126Cys-S48 (ligand, human, UniProt P22301 19-178, looked up, S48 on Cys 126, mature) SPGQGTQSENSCTHFPGNLPNMLRDLRDAFSRVKTFFQMKDQLDNLLLKESLLEDFKGYLGCQALSEMIQFYLEEVMPQAENQDPDIKAHVNSLGENLKTLRLRLRRCHRFLPCENKSKAVEQVKCAFNKLQEKGIYKAMSEFDIFINYIEAYMTMKIRN"

# Molecular target: T2, IL-10R1-Fc
# Test: ELISA, IL-10R1-Fc coated
row,Decreased fold of binding to ligand after Conjugating with S48,Binder
1,3 fold,"IL-10 Thr6Cys-S48 (ligand, human, UniProt P22301 19-178, looked up, S48 on Cys 6, mature) SPGQGCQSENSCTHFPGNLPNMLRDLRDAFSRVKTFFQMKDQLDNLLLKESLLEDFKGYLGCQALSEMIQFYLEEVMPQAENQDPDIKAHVNSLGENLKTLRLRLRRCHRFLPCENKSKAVEQVKNAFNKLQEKGIYKAMSEFDIFINYIEAYMTMKIRN"
